Reference: the nanobody polyreactivity screen of Harvey et al. (2022)

Test: yeast display, Sf9 membrane polyspecificity reagent, FACS + sequencing; frameworks hold sequencing errors
Outline: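 Galactose-induced (36–48 hours) yeast carrying a synthetic nanobody display library were exposed to 10% biotinylated, detergent-solubilized Sf9 membrane reagent at 4 °C for 1 hour. FACS followed streptavidin microbead enrichment, using low and high (top ~1%) gates for expression (anti-HA) and reagent binding (streptavidin). Colony PCR, MiSeq 2 × 250 sequencing and CDR-length filtering followed. Labels for polyreactivity reflect the gate of origin.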

Sequence | polyreactivity (PSR sort gate)
QVQLVESGGGLVQAGGSLRLSCAASGIIFRKYAMGRYRQAPGKERELVAAISSSGGSTYYADSVKGRFTISRDNAKNTVYLQMNSLKPEDTAVYYCAAERQVTNKIFNYWGQGTQVTVSS | high polyreactivity
QVQLVESGGGLVQAGGSLRLSCAASGFTFPVNAMGWYRQAPGKERELVATINSGGSTNYADSVKGRFTISRDNAKNTVYLQMNSLKPEDTAVYYCAAAKRTADYASYWYVENDYWGQGTQVTVSS | low polyreactivity
QVQLVDSGGGLVQAGGSLRLTCAASGSTYYRNAMGWYRQAPGKETEFVAAISFRGGGTYADSVKGRFTISRDNAKNTVYLQMNSLKPDDTAVYYCDSDHLSYRRRYEYWGQGTKVTVSS | low polyreactivity
QVQLVESGGGLVQAGGSHRLSCAASGSTFKDYAMVWYRQAPGKERELVASITESGGSTYYADSVKGRFTISRDNAKNTVYLQMNSLNPEDTAVYYCATDLIPEGSGYDYWGQGTQVTVSS | low polyreactivity
QGQLVESGGGLVQAGGSLRLSCAASGSIFVLNAMGWYRQAPGKERELVAAISGGSTNYADSVKGRFTISRDNAKNTVYLQMNSLKPEDTAVYYCAARARRRYYYWGQGTQVTVSS | high polyreactivity
QVQLVETGGGLVQAGGSLRLSSAASGITSNSYAMGWYRQAPGKERELVATITSGGSTNYADSVKGRFTITLDNAKNSVYLQMNSLKPEDTAVYYCNREYWLPTQYDYWGQGTQVTVSS | low polyreactivity
QVQHVESGGGLVQAGGSLRLSCAASGRTFSYYTMGWYRQAPGKERELVARISNRGTNTYYADSVKGRFTISRDNAKYTVYLQMNSLKPEDYAVYYCAKYYYTSIVGYDSWGQGTQVTVSS | low polyreactivity
QVQLVESGGGLVQAGGSLRLSCAASGSIFYQYAMGWYRLAPGKERELVARITGSSGSTYYADSVKGRFTISRDNAKNTVYLQKNSLKPEDTAVYYCATDNYLIGDYWGQGTQVTVSS | high polyreactivity
QVQLVESGGGLVQAGGSLRLSCAASGFTFSYYAMGGYRQAPGKERELVAGIDYSGGSTYYADSVKGRFTISRDNAKNTVYLQMNSQKPEDTAVFYCNAVYARKYYYSHGYDYWGQGTQVTVSS | high polyreactivity
QVQLVESGGGLVQAGGSLRLSCAASGRIFVRYAMGWYRQAPGKERELVAGITSGSRTNYADSVKGRFTISRDNAKNTVYLQMNSLKPEDTAVYYCNARVFRYYGIFDYWGQGTQVTVSS | high polyreactivity
QVQLVESGGGLVQAGGSLRLSCAASGLTFQSYVMGWYRPAPGKERELVAAISWSGTRTYFADSVKGRFTISRDNAKNTVYLQMYSLKPEDTAVYSCAADFYTWYEERYWSYNYWGQGTQVTVSS | high polyreactivity
QVQLVESGGGLVQAGGSLRLSCAASGRILRSYAMGWYRPAPGKERELVAAISWRGGSTYYADSVKGRFTISRDNAKNTVYLQMNSLKPEDTAVYYCAKRSYYPARYDYWGQGTQVTVSS | high polyreactivity
QVQLVVSGGGLVQAGGSLRLSCAASGSIFRFYTMGWYRQAPGKERELVAAISASGGNTYYADSVKGRFTISRDNAKNTVYLQMNSLKPEDTAVYYCARVKFTKYDYWGQGTQVTVSS | high polyreactivity
QVQLVESGGGLVQAGGSLRLSCAASGRMGWYRQAPGKERELVAAITSGDRTNYADSVKGRFTISRDNAKNTVYLQMNSLKREDTAVYYCATEPSWYHGFIDPRGYWGQGTQVTVSS | low polyreactivity
QDQLVESGGGLVQAGGSLRLSCAATASIFVTYAMGWYRQAPGQERELVAAINYSGGSTYYADSVKGRFTISRDNAKNTFYLQMNSLKPEDTAVNYCAADERVDQGWIRMDYWGQGTQVTVSS | low polyreactivity
QVQLVESGGGLVQAGGSLRLSCAASGSTFDYYDMGWYRQAPGKERELVAAINWSGGSTYYADSVKGRFTISRDNAKNTVYLQMNSLKPEDTAVYYCAADLSSRGISQDDYWGQGTQVTVSS | high polyreactivity
QVQLVESGGGLVQAGGSLRLSCAASGFIFTGNVMGWYRQAPGKERELVAAIRWSGGRTYYADSVKGRFTISRDNAKNTVYLQMNSLIPEDTAVYYCNALGRVQGYKPGGLDYWGQGTQVTVSS | high polyreactivity
QVQLVESGGGLVQAGGSLRLSCAASGGTFGYYAMGWYIQAPGTERELVAAISWSGGSTYYADSVKGRFTISRDNAKNTVYLQMNSLKAEDTAVYYCNAVTRFGYVKFDYWGQGTQVTVSS | high polyreactivity
QLQHVESGAVLVQAAGSLRLICAASGLIFPYNAMGWSRQAPGKERELVAAIDTRASSTYYADSVKGRFTISRDNAKNSVYLQMNSLKPEDTAVYYCATRRWGRRKGVGYWGQGTQVTVSS | high polyreactivity
QVQLVESGGGLVQAGGSLRLSCAASGSTFAKNAMGWYRQAPGKERELVAAISRGGNTYYADSVKGRFTISRDNAKNTVYLHMNSLKPEDTAVYYCAKLPYTRTYLGSLYDYWGQGTQVTVSS | high polyreactivity
QVQLVESGGGLVQAGGSLRLSCAASGRIFYGYTMGWYRQAPGKERELVASIDYSTGRTYYADSVKGRFTISRDNAKNTVYLQMNSLKPEDTAVYYCNADPNYSLLRYDYWGQGTQVTVSS | high polyreactivity
QVQLVESGGGLVQAGGSLRLSCAASGRTFFGYAMGWYRQAPGKERELVAAITSSGGRTYYADSVKGRFTISRDNAKNTVYLQMNSLKPEDTAVYYCNTVLSFRSVNIYRGRGDYWGQGSQVTVSS | high polyreactivity

Sequence | polyreactivity (PSR sort gate)
QVQLEESGAGLVQAGGSLRLCCAASGNTFSSNAMGLYTQAPGKEMELVAGITKSGGRTYYADSVKGRFTISRDNAQYTVYLHMNSLKPEDSAVFYCNRRAGPFSIQYYYWGQVTQVTVSS | high polyreactivity
QLQLVESGGGLVQAGGSLRLSCAASGNTYFWYAMGWYRQAPGKERELVAAITSGGSTTYADSVKGRFTISRHNGMNTVYLQMNSLKPEDTAVYYCAQYTRDIFAVTFYEGEDYWGQGSQVTVSS | low polyreactivity
QVQLVESGGGLVQAGGSLRLSCAASGSIFQDNTMGWYRQAPGKERELVAAISWSATSTYYADSVTGRFSISRDNAKNTVYLQMNRLKPEDTAVYDCAAGRSYRRYAYYYWGQGTQVTVSS | high polyreactivity
QVQLVESGGRLVQAGGSLRLSCAASGSTFYRNAMGWYRQAPGKERELVASINNGGSTYYADSVKGRFTISRDNAKNTVYLQMNSLKPEDTAVYYCAATESWDYDYWGQGTQVTVSS | low polyreactivity
QVQLVESGGGLVQAGGSLRLSCAASGFIYEDYAMGWYRQAPGKERELVAAITWRGGRTYYADCVKGRYTISRDNAKNTVYLQMNSLKPEDTAVYYCRPLVYSYASRYGYWGQGTQVTVLS | high polyreactivity
QVQLVESGGGLVQAGGSLRLSCAASVLIFYWYAMGWYRQAPGKERELVAAISSAGSTNYADSVKGRFTISRDNAKNTVYLQMNSLKPEDTAVYYCYARIAYRYSNYGYWGQGTQVTVSS | low polyreactivity
QVQLVESGGGLVQAGGSLRLSCAASGSTFIPNAMGWYSQAPGKERELVAAISTGGSTNYADSVKGRFTISRDNAKNTVYLQMNSLKPEDTAVYYCNARRGYYNPGRRFYYWGQGTQVTVSS | low polyreactivity
QVQLVESGGGLVEAGGSLRLSCAASGFIFGGYDMGWYRPAPGKQRELVAAITRSGGSTYYADSVKGRFTISRDNAKNTVYLEMNSLKPEDTAVYYCAAERQPYRTSSYNYWGQGTQVTVSS | high polyreactivity
QVQLVESGGGLVQAGGSLRLSCAASGGTFALNAMGWYRQAPGKERELVADIDGRGGSTYYADSVKGRFTISRDNAKNTVYLQMNSLKPEVTAVYYCAARAPFLSVPSELDYWGQGTQVTVSS | low polyreactivity
QVQLVESGGGLVQAGGSLRLSCAASGSTIERYAMGWYRPAPGKERELVAAIRWSGGSTYYADSVKGRFTISRDNAKNTVYLQMNSLKPEDTAVYYCAASRSNADWFDSLGQGTQVTVSS | high polyreactivity
QVQLVESGGGLVQAGGSLRLSCAASGSTFYYNAMGWYRQAPGKERELVAGITSSGGSTYYADSVKGRFTISRDNAKNTVYLQMNSLKPEDTAVYYCAASYKRSRRGYYWGQGTQVTVSS | high polyreactivity
QVQLVESGGGLVQAGGSLRLSCAASGRTFVGYAMGWYRQAPGKERELVAAISGGGRTNYADSVKGRFTISRDNAKNTVYLQMISLKPEDTAVYYFAARLVKYFRPYDYWGQGTQVTVSS | high polyreactivity
QVQLEESGGGLVQAGGSLRLSCAASGIIFHEYALGWYRQAPGKERELDASISWNDGSTYADSVKGRFTISRDNAKNTVYLQMNSQKPEDTAVYYCAADYPYYPFSSIYDYWGQGTQVTVSS | low polyreactivity
QVQLVESGGGLVQAGGSLRLSCAPSGLIFKKYTMGGYRQSPGKERELVASISKSGGSTYYADSVKGRFTFSRDNAKNTYYLQMNCLKPEDTAVYYCNRVSHYIRFDYWVQGTQVTVSS | low polyreactivity
QVQLVESGGGLVQAGGSLRLSCAASGIIFWYYAMGWYIQAPGKERELVAAFSSGGSTTYADSVKGRFTISRDNAKNTVYLQINSLKPEDTAVYYCAASVRGIRYDYWGQGTQVTVSS | low polyreactivity
IIQAGGSLRLCCAASGRTISVYAMGWYTQAAGKERELIADITSGGSTNYADSVKGRFTISRDNAKNTVYLQRNSLKPEDTAVYYCVAERQIRSFWSSRTYVFGYWGQGTQVTVSS | low polyreactivity
QVQLVESGGGLVQAGGSLRLSCAASGSTFKFYAMGWYRQAPGKERELVAAISGSSGSTYYADSVKGRFTISRDNAKNTVYLQMNSLKPEDTAVYYCNTQYSRYYTRYSAYDYWGQGTQVTVSS | low polyreactivity
QVQLVESGGGLVQAGGSLRLSCAASGSTFAVYAMGWYRQAPGKERELVAAITRGDRTYYADSVKGRFTISRDNAKNTVYLQMNSLKPEDTAVYYCAAGYYRLWVRYDYWGQGTQVTVSS | low polyreactivity
QVQLQESGGGLVQAGGSLRLSCAASGSISSRDAMGWYRQAPGKEREFVATIASGTTTYYADSVKGSFTISRDNAENTLYLQTNSLKPEDTAVYYCAAPTIQIYPFYYWGQGTQVTVSS | high polyreactivity
QVQLVESGGGLVHAGGSLRLSCAASGFIFARYAMGWYRQAPGKERELVAAINLSGGSTYYADSVKGRFTISRDNAKNTVYLQMNSLKPEDTAVYYCAATDPPYDAFEAKIDYQDFDYWGQGTQVTVSS | low polyreactivity
QVQRVESGGGLVQAGGSLRLSCAASGLTFEYNAMGWYRQAPGKEREFVATISNGGITSYADSVKGRFTISRDNAKNTVYLQMNSLKPEDTGVYYCAASYADSPTTDQLWLEYDSWGQGTQVTVSS | low polyreactivity
